Reference: the Human Domainome abundance scans (Beltran et al. 2025)
± gives the uncertainty stated by the source.

B1: Ras GTPase-activating protein 1, residues 281 to 341; numbered along this chain, P20936 (parent)
chain: RRRVRAILPYTKVPDTDEISFLKGDMFIVHNELEDGWMWVTNLRTDEQGLIVEDLVEEVGR

Variants of: B1
Experiment: abundance fitness (aPCA) (normalised: wild type 0, dead -1); higher = more abundant; growth selection in yeast, the domain comes from the species named
Conditions: Homo sapiens

Variant	abundance fitness
K12C	-0.101 ± 0.029
K12Q	-0.202 ± 0.096
K12V	-0.788 ± 0.047
K12M	-0.188 ± 0.053
K12H	-0.184 ± 0.033
K12G	0.023 ± 0.032
K12P	-0.102 ± 0.037
K12A	-0.029 ± 0.032
K12E	-0.218 ± 0.11
K12I	-1.01 ± 0.062
K12Y	-0.824 ± 0.044
K12F	-0.985 ± 0.052
K12T	-0.7 ± 0.048
K12S	-0.077 ± 0.027
K12R	-0.052 ± 0.033
K12L	-0.779 ± 0.041
K12D	-0.806 ± 0.056
V29N	-0.823 ± 0.049
V29A	-0.694 ± 0.041
V29D	-0.764 ± 0.043
V29M	-0.644 ± 0.1
V29S	-0.866 ± 0.043
V29E	-0.873 ± 0.11
V29R	-0.636 ± 0.045

Variant	abundance fitness
V29W	-0.951 ± 0.13
V29L	-0.473 ± 0.034
V29P	-0.959 ± 0.079
V29H	-0.881 ± 0.062
V29I	-0.057 ± 0.029
V29Y	-0.879 ± 0.049
V29G	-0.861 ± 0.039
V29C	-0.363 ± 0.029
V29Q	-0.954 ± 0.16
V29F	-0.913 ± 0.055
V29T	-0.879 ± 0.059
G24Q	-0.628 ± 0.11
G24R	-0.672 ± 0.039
G24D	-0.07 ± 0.031
G24L	-0.885 ± 0.054
G24W	-0.545 ± 0.057
G24K	-0.981 ± 0.16
G24M	-0.59 ± 0.078
G24E	-0.371 ± 0.052
G24V	-0.751 ± 0.036
G24C	-0.733 ± 0.036
G24I	-0.933 ± 0.061
G24S	-0.362 ± 0.027
G24H	-0.201 ± 0.033

Variant	abundance fitness
G24T	-0.881 ± 0.066
G24Y	-0.297 ± 0.033
G24P	-1.04 ± 0.11
G24A	-0.495 ± 0.034
G24N	-0.133 ± 0.033
G24F	-0.584 ± 0.035
E18W	-1.28 ± 0.29
E18R	-0.353 ± 0.034
E18H	-0.452 ± 0.041
E18V	-0.369 ± 0.029
E18P	-1.04 ± 0.12
E18M	-0.42 ± 0.082
E18C	-0.341 ± 0.03
E18F	-0.498 ± 0.036
E18Q	0.047 ± 0.089
E18K	-0.457 ± 0.11
E18L	-0.35 ± 0.039
E18T	-0.222 ± 0.038
E18N	-0.809 ± 0.051
E18Y	-0.513 ± 0.037
E18I	-0.35 ± 0.036
E18G	-0.507 ± 0.031
F21R	-0.855 ± 0.031
F21N	-0.83 ± 0.03

Variant	abundance fitness
F21W	-0.92 ± 0.068
F21G	-0.914 ± 0.029
F21V	-0.478 ± 0.021
F21S	-0.908 ± 0.028
F21Q	-0.74 ± 0.068
F21K	-0.988 ± 0.081
F21Y	-0.091 ± 0.021
F21P	-0.939 ± 0.05
F21C	-0.101 ± 0.021
F21H	-0.84 ± 0.036
F21E	-0.866 ± 0.063
F21I	-0.568 ± 0.024
F21T	-0.907 ± 0.038
F21M	-0.538 ± 0.039
F21D	-0.862 ± 0.03
S20P	-0.639 ± 0.077
S20D	-0.111 ± 0.029
S20G	-0.386 ± 0.028
S20E	-0.641 ± 0.08
S20K	-0.853 ± 0.12
S20H	-0.977 ± 0.08
S20N	-0.14 ± 0.03
S20I	-0.844 ± 0.053
S20A	-0.669 ± 0.053

Variant	abundance fitness
S20M	-1.09 ± 0.2
S20F	-0.877 ± 0.067
S20Y	-0.881 ± 0.063
S20T	-0.171 ± 0.035
S20C	-0.318 ± 0.029
S20Q	-0.828 ± 0.13
S20V	-0.972 ± 0.057
S20W	-0.511 ± 0.1
S20L	-1.07 ± 0.095
K23C	-0.16 ± 0.023
K23Q	-0.061 ± 0.043
K23Y	-0.269 ± 0.023
K23N	-0.246 ± 0.023
K23P	-0.048 ± 0.034
K23R	-0.094 ± 0.022
K23H	-0.313 ± 0.031
K23T	-0.058 ± 0.024
K23S	-0.102 ± 0.02
K23M	-0.149 ± 0.033
K23W	-0.482 ± 0.037
K23V	-0.13 ± 0.028
K23L	-0.232 ± 0.027
K23A	-0.038 ± 0.031
K23E	0.006 ± 0.041

Variant	abundance fitness
K23G	-0.23 ± 0.025
K23I	-0.148 ± 0.021
I19K	-0.934 ± 0.13
I19S	-0.878 ± 0.042
I19D	-0.941 ± 0.063
I19R	-0.833 ± 0.05
I19W	-1.04 ± 0.12
I19P	-0.989 ± 0.11
I19F	-0.943 ± 0.061
I19M	-0.316 ± 0.048
I19E	-0.881 ± 0.14
I19Q	-1.16 ± 0.23
I19N	-1.03 ± 0.069
I19L	-0.004 ± 0.03
I19C	-0.451 ± 0.028
I19A	-1.14 ± 0.12
I19Y	-0.86 ± 0.043
T11P	-0.696 ± 0.051
T11S	-0.05 ± 0.024
T11W	-0.213 ± 0.049
T11R	-0.126 ± 0.028
T11V	0.017 ± 0.029
T11Q	-0.097 ± 0.084
T11Y	-0.278 ± 0.029

Variant	abundance fitness
M26K	-0.333 ± 0.083
M26F	-0.042 ± 0.029
M26H	-0.061 ± 0.034
M26C	-0.042 ± 0.027
M26G	-0.416 ± 0.03
M26W	-0.104 ± 0.048
M26R	-0.186 ± 0.032
M26Y	-0.028 ± 0.029
M26Q	-0.056 ± 0.062
M26E	0.117 ± 0.057
M26N	-0.029 ± 0.031
M26D	0.012 ± 0.03
M26A	-0.177 ± 0.033
M26I	-0.039 ± 0.031
M26L	-0.026 ± 0.03
M26T	-0.03 ± 0.038
M26S	-0.125 ± 0.028
M26P	-0.325 ± 0.047
I28E	0.098 ± 0.034
I28A	-0.068 ± 0.022
I28R	-0.206 ± 0.021
I28M	-0.029 ± 0.031
I28T	-0.011 ± 0.023
I28V	-0.016 ± 0.021

Variant	abundance fitness
I28D	0.029 ± 0.022
I28L	-0.038 ± 0.022
I28H	-0.069 ± 0.022
I28W	-0.136 ± 0.03
I28Q	-0.047 ± 0.042
I28G	-0.604 ± 0.022
I28Y	-0.079 ± 0.022
I28N	-0.102 ± 0.022
I28K	-0.07 ± 0.033
I28P	-0.85 ± 0.04
I28C	-0.07 ± 0.021
D25A	-0.949 ± 0.066
D25Q	-0.768 ± 0.22
D25C	-0.864 ± 0.047
D25R	-0.997 ± 0.062
D25Y	-0.948 ± 0.051
D25W	-1.11 ± 0.17
D25I	-0.946 ± 0.059
D25V	-0.904 ± 0.046
D25E	-0.712 ± 0.094
D25F	-0.822 ± 0.047
D25P	-0.664 ± 0.093
D25L	-0.852 ± 0.062
D25H	-0.895 ± 0.059

Variant	abundance fitness
D25S	-0.874 ± 0.042
P14F	-0.348 ± 0.031
P14Q	-0.055 ± 0.074
P14K	-0.011 ± 0.061
P14N	-0.075 ± 0.03
P14T	-0.076 ± 0.034
P14V	-0.101 ± 0.027
P14R	-0.132 ± 0.03
P14M	-0.045 ± 0.063
P14I	-0.124 ± 0.029
P14Y	-0.295 ± 0.033
P14G	-0.089 ± 0.025
P14L	-0.188 ± 0.032
P14H	-0.146 ± 0.032
P14S	-0.085 ± 0.025
P14A	-0.027 ± 0.03
P14E	-0.06 ± 0.066
P14D	-0.023 ± 0.028
P14C	-0.142 ± 0.026
H30D	-0.122 ± 0.031
H30G	-0.444 ± 0.028
H30L	-0.085 ± 0.03
H30R	-0.255 ± 0.029
H30W	-0.153 ± 0.045

Variant	abundance fitness
H30E	0.008 ± 0.077
H30C	-0.362 ± 0.028
H30V	-0.285 ± 0.029
H30S	-0.318 ± 0.026
H30A	-0.4 ± 0.033
H30F	-0.39 ± 0.033
H30N	-0.135 ± 0.028
H30Q	-0.033 ± 0.056
H30M	-0.151 ± 0.049
H30K	-0.151 ± 0.065
H30T	-0.261 ± 0.037
H30P	-0.789 ± 0.061
H30I	-0.163 ± 0.03
F27R	-0.905 ± 0.054
F27Q	-0.815 ± 0.12
F27Y	-0.834 ± 0.045
F27D	-0.748 ± 0.051
F27A	-0.901 ± 0.06
F27H	-0.724 ± 0.05
F27V	-0.901 ± 0.045
F27C	-0.485 ± 0.029
F27M	-0.108 ± 0.07
F27L	-0.241 ± 0.029
F27G	-0.82 ± 0.04

Variant	abundance fitness
F27P	-0.74 ± 0.081
F27W	-0.957 ± 0.1
F27K	-0.965 ± 0.13
F27I	-0.864 ± 0.044
F27T	-0.914 ± 0.069
F27S	-0.798 ± 0.036
L22D	-0.045 ± 0.045
L22Y	-0.102 ± 0.035
L22P	-1.15 ± 0.19
L22E	0.006 ± 0.083
L22H	-0.013 ± 0.041
L22G	-0.229 ± 0.034
L22F	-0.145 ± 0.029
L22N	-0.013 ± 0.034
L22R	-0.045 ± 0.032
L22W	-0.102 ± 0.058
L22I	0.001 ± 0.033
L22M	-0.054 ± 0.062
L22T	-0.153 ± 0.039
L22S	-0.108 ± 0.029
L22C	-0.124 ± 0.031
L22V	-0.038 ± 0.035
L22K	-0.07 ± 0.073
L22Q	0.045 ± 0.13

Variant	abundance fitness
L22A	-0.095 ± 0.042
D17M	-0.059 ± 0.044
D17G	-0.094 ± 0.026
D17F	-0.182 ± 0.028
D17L	-0.065 ± 0.033
D17H	-0.061 ± 0.03
D17C	-0.105 ± 0.03
D17S	-0.049 ± 0.024
D17Q	-0.011 ± 0.061
D17R	0.005 ± 0.03
D17I	-0.275 ± 0.033
D17E	-0.006 ± 0.053
D17W	-0.136 ± 0.051
D17Y	-0.084 ± 0.026
D17N	-0.037 ± 0.032
D17P	-0.088 ± 0.037
T16W	-0.688 ± 0.061
T16G	-0.439 ± 0.027
T16P	-0.911 ± 0.074
T16L	-0.973 ± 0.056
T16A	-0.746 ± 0.053
T16F	-0.752 ± 0.04
T16V	-0.894 ± 0.047
T16R	-0.456 ± 0.029

Variant	abundance fitness
T16C	-0.38 ± 0.027
T16Y	-0.942 ± 0.06
T16Q	-1.03 ± 0.21
T16H	-0.784 ± 0.047
T16N	-0.605 ± 0.037
T16S	-0.031 ± 0.024
T16I	-0.879 ± 0.059
T16M	-0.87 ± 0.12
T16D	-1.01 ± 0.068
D15E	0.05 ± 0.05
D15V	-0.577 ± 0.03
D15I	-0.518 ± 0.045
D15T	-0.213 ± 0.048
D15H	-0.04 ± 0.034
D15P	-0.819 ± 0.071
D15C	-0.126 ± 0.029
D15Y	-0.168 ± 0.028
D15R	-0.172 ± 0.03
D15K	-0.169 ± 0.079
D15M	-0.269 ± 0.077
D15L	-0.246 ± 0.033
D15W	-0.276 ± 0.059
D15Q	-0.207 ± 0.072
D15A	-0.129 ± 0.029

Variant	abundance fitness
D15N	-0.022 ± 0.037
D15G	-0.011 ± 0.025
D15F	-0.241 ± 0.027
V13A	0.018 ± 0.036
V13G	-0.04 ± 0.025
V13P	-0.34 ± 0.042
V13D	-0.047 ± 0.033
V13L	-0.053 ± 0.029
V13M	-0.013 ± 0.073
V13C	0.015 ± 0.028
V13Y	-0.137 ± 0.028
V13E	0.019 ± 0.047
V13K	0.02 ± 0.072
V13R	0.071 ± 0.03
V13F	-0.185 ± 0.027
V13T	0.084 ± 0.03
V13Q	0.025 ± 0.046
V13I	-0.019 ± 0.029
V13H	0.012 ± 0.03
V13S	-0.015 ± 0.025
V13N	0.058 ± 0.031
V13W	-0.152 ± 0.058
